B1: green fluorescent protein (GFP)-DNA2 (enzyme, UniProt P51530 1-1060, looked up)
chain: MEQLNELELLMEKSFWEEAELPAELFQKKVVASFPRTVLSTGMDNRYLVLAVNTVQNKEGNCEKRLVITASQSLENKELCILRNDWCSVPVEPGDIIHLEGDCTSDTWIIDKDFGYLILYPDMLISGTSIASSIRCMRRAVLSETFRSSDPATRQMLIGTVLHEVFQKAINNSFAPEKLQELAFQTIQEIRHLKEMYRLNLSQDEIKQEVEDYLPSFCKWAGDFMHKNTSTDFPQMQLSLPSDNSKDNSTCNIEVVKPMDIEESIWSPRFGLKGKIDVTVGVKIHRGYKTKYKIMPLELKTGKESNSIEHRSQVVLYTLLSQERRADPEAGLLLYLKTGQMYPVPANHLDKRELLKLRNQMAFSLFHRISKSATRQKTQLASLPQIIEEEKTCKYCSQIGNCALYSRAVEQQMDCSSVPIVMLPKIEEETQHLKQTHLEYFSLWCLMLTLESQSKDNKKNHQNIWLMPASEMEKSGSCIGNLIRMEHVKIVCDGQYLHNFQCKHGAIPVTNLMAGDRVIVSGEERSLFALSRGYVKEINMTTVTCLLDRNLSVLPESTLFRLDQEEKNCDIDTPLGNLSKLMENTFVSKKLRDLIIDFREPQFISYLSSVLPHDAKDTVACILKGLNKPQRQAMKKVLLSKDYTLIVGMPGTGKTTTICTLVRILYACGFSVLLTSYTHSAVDNILLKLAKFKIGFLRLGQIQKVHPAIQQFTEQEICRSKSIKSLALLEELYNSQLIVATTCMGINHPIFSRKIFDFCIVDEASQISQPICLGPLFFSRRFVLVGDHQQLPPLVLNREARALGMSESLFKRLEQNKSAVVQLTVQYRMNSKIMSLSNKLTYEGKLECGSDKVANAVINLRHFKDVKLELEFYADYSDNPWLMGVFEPNNPVCFLNTDKVPAPEQVEKGGVSNVTEAKLIVFLTSIFVKAGCSPSDIGIIAPYRQQLKIINDLLARSIGMVEVNTVDKYQGRDKSIVLVSFVRSNKDGTVGELLKDWRRLNVAITRAKHKLILLGCVPSLNCYPPLEKLLNHLNSEKLIIDLPSREHESLCHILGDFQRE
B2: CTC1-STN1-TEN1 (CST) complex (complex)
chain 1: AAGRAQVPSSEQAWLEDAQVFIQKTLCPAVKEPNVQLTPLVIDCVKTVWLSQGRNQGSTLPLSYSFVSVQDLKTHQRLPCCSHLSWSSSAYQAWAQEAGPNGNPLPREQLLLLGTLTDLSADLEQECRNGSLYVRDNTGVLSCELIDLDLSWLGHLFLFPRWSYLPPARWNSSGEGHLELWDAPVPVFPLTISPGPVTPIPVLYPESASCLLRLRNKLRGVQRNLAGSLVRLSALVKSKQKAYFILSLGRSHPAVTHVSIIVQVPAQLVWHRALRPGTAYVLTELRVSKIRGQRQHVWMTSQSSRLLLLKPECVQELELELEGPLLEADPKPLPMPSNSEDKKDPESLVRYSRLLSYSGAVTGVLNEPAGLYELDGQLGLCLAYQQFRGLRRVMRPGVCLQLQDVHLLQSVGGGTRRPVLAPCLRGAVLLQSFSRQKPGAHSSRQAYGASLYEQLVWERQLGLPLYLWATKALEELACKLCPHVLRHHQFLQHSSPGSPSLGLQLLAPTLDLLAPPGSPVRNAHNEILEEPHHCPLQKYTRLQTPSSFPTLATLKEEGQRKAWASFDPKALLPLPEASYLPSCQLNRRLAWSWLCLLPSAFCPAQVLLGVLVASSHKGCLQLRDQSGSLPCLLLAKHSQPLSDPRLIGCLVRAERFQLIVERDVRSSFPSWKELSMPGFIQKQQARVYVQFFLADALILPVPRPCLHSATPSTPQTDPTGPEGPHLGQSRLFLLCHKEALMKRNFCVPPGASPEVPKPALSFYVLGSWLGGTQRKEGTGWGLPEPQGNDDNDQKVHLIFFGSSVRWFEFLHPGQVYRLIAPGPATPMLFEKDGSSCISRRPLELAGCASCLTVQDNWTLELESSQDIQDVLDANKSLPESSLTDLLSDNFTDSLVSFSAEILSRTLCEPLVASLWMKLGNTGAMRRCVKLTVALETAECEFPPHLDVYIEDPHLPPSLGLLPGARVHFSQLEKRVSRSHNVYCCFRSSTYVQVLSFPPETTISIPLPHIYLAELLQGGQSPFQATASCHIVSVFSLQLFWVCAYCTSICRQGKCTRLGSTCPTQTAISQAIIRLLVEDGTAEAVVTCRNHHVAAALGLCPREWASLLDFVQVPGRVVLQFAGPGAQLESSARVDEPMTMFLWTLCTSPSVLRPIVLSFELERKPSKIVPLEPPRLQRFQCGELPFLTHVNPRLRLSCLSIRESEYSSSLGILASSC
chain 2: QPGSSRCEEETPSLLWGLDPVFLAFAKLYIRDILDMKESRQVPGVFLYNGHPIKQVDVLGTVIGVRERDAFYSYGVDDSTGVINCICWKKLNTESVSAAPSAARELSLTSQLKKLQETIEQKTKIEIGDTIRVRGSIRTYREEREIHATTYYKVDDPVWNIQIARMLELPTIYRKVYDQPFHSSALEKEEALSNPGALDLPSLTSLLSEKAKEFLMENRVQSFYQQELEMVESLLSLANQPVIHSASSDQVNFKKDTTSKAIHSIFKNAIQLLQEKGLVFQKDDGFDNLYYVTREDKDLHRKIHRIIQQDCQKPNHMEKGCHFLHILACARLSIRPGLSEAVLQQVLELLEDQSDIVSTMEHYYTAF
chain 3: LPKPGTYYLPWEVSAGQVPDGSTLRTFGRLCLYDMIQSRVTLMAQHGSDQHQVLVCTKLVEPFHAQVGSLYIVLGELQHQQDRGSVVKARVLTCVEGMNLPLLEQAIREQRLYKQERGGSQ

How the values were obtained:
mCherry-BLM = mCherry-BLM (UniProt P54132 1-1417); assay: DNA curtain single-molecule imaging
Chain of mCherry-BLM (P54132 whole entry): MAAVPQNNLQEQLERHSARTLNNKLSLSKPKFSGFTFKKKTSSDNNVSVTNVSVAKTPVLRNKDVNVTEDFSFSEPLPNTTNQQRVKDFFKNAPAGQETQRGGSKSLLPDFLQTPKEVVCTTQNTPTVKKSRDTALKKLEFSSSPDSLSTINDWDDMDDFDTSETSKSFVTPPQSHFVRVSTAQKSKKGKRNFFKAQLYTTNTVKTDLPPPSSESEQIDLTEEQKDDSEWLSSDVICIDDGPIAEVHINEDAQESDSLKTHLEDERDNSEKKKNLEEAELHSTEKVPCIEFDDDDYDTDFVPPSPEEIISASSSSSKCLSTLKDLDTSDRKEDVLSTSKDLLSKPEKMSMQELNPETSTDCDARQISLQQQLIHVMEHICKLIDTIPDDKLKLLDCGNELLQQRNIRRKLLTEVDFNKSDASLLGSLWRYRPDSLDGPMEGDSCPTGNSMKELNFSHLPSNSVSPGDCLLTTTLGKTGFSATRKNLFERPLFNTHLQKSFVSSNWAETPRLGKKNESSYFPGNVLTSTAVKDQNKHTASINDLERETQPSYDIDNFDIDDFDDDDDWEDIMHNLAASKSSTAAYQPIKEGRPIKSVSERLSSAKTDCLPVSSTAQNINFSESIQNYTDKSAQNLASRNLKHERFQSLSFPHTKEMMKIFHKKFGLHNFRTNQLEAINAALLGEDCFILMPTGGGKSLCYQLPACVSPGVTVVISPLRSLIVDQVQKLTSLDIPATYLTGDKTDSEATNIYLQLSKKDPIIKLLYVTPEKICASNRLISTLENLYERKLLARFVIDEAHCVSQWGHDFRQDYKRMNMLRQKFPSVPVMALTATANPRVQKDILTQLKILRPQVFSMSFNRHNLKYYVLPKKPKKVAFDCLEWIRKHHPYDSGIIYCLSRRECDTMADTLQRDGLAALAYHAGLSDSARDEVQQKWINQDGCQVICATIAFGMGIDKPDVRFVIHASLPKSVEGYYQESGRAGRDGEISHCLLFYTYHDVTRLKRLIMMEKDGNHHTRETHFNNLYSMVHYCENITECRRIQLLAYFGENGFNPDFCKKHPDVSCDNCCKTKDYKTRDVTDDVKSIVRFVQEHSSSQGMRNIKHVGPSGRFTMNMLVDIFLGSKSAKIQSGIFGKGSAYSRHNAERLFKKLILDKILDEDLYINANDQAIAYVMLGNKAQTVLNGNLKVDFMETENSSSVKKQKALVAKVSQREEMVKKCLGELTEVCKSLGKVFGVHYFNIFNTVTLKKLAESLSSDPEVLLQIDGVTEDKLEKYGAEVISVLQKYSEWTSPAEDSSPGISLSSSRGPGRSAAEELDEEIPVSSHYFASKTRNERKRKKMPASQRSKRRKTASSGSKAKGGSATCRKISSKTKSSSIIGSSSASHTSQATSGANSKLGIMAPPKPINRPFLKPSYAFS

BRCA1-BARD1 = BRCA1-BARD1 (UniProt P38398 1-1863; Q99728 1-777); assay: pull-down
Chain of BRCA1-BARD1 (P38398 whole entry, chain 1 of 2): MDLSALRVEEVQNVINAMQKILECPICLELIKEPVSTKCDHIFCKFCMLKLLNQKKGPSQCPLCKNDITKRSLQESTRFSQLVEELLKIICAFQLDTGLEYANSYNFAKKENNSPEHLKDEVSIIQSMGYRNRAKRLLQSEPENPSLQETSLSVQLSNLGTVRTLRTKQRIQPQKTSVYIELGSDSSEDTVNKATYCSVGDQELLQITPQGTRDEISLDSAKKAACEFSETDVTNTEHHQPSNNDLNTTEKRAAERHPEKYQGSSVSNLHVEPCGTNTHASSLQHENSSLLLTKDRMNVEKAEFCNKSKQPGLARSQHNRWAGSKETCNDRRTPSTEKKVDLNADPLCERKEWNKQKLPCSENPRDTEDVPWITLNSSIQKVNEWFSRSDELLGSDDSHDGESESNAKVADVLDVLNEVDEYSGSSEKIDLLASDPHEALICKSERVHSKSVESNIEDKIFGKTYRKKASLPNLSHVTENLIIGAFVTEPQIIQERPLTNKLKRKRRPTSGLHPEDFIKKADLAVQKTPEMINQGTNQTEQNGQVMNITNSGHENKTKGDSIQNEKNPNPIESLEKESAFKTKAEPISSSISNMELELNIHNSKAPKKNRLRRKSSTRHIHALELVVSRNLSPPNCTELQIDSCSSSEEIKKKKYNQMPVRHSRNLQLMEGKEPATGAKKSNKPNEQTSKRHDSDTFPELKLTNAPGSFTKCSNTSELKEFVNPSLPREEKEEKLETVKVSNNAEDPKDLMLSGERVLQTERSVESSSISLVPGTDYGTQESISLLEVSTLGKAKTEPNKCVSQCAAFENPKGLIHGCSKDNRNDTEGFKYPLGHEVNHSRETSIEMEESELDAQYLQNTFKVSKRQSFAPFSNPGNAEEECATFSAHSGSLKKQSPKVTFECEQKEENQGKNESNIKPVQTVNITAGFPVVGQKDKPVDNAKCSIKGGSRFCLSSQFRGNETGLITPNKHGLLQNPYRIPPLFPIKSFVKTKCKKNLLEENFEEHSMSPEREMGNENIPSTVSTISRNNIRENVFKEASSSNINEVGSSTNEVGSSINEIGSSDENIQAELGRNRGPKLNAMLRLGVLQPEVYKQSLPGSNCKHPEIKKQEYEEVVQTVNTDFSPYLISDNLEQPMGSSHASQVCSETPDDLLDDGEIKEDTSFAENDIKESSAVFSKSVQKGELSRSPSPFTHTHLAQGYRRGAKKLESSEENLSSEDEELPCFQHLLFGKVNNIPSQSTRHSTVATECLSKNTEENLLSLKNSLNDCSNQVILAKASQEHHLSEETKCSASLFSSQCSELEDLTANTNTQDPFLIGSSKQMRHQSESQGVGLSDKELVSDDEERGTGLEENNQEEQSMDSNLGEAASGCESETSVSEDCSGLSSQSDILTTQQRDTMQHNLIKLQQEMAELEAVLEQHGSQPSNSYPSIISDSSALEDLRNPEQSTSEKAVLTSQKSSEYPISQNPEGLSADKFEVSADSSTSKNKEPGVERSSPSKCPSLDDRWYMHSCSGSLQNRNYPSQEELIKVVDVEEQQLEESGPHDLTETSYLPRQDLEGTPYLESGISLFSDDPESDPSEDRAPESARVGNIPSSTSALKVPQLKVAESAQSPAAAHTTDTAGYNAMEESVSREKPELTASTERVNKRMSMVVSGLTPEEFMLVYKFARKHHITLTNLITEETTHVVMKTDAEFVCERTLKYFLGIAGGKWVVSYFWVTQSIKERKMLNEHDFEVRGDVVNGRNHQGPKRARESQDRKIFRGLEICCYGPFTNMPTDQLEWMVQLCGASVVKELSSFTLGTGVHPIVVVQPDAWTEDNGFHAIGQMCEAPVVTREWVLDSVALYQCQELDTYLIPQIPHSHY
Chain of BRCA1-BARD1 (Q99728 whole entry, chain 2 of 2): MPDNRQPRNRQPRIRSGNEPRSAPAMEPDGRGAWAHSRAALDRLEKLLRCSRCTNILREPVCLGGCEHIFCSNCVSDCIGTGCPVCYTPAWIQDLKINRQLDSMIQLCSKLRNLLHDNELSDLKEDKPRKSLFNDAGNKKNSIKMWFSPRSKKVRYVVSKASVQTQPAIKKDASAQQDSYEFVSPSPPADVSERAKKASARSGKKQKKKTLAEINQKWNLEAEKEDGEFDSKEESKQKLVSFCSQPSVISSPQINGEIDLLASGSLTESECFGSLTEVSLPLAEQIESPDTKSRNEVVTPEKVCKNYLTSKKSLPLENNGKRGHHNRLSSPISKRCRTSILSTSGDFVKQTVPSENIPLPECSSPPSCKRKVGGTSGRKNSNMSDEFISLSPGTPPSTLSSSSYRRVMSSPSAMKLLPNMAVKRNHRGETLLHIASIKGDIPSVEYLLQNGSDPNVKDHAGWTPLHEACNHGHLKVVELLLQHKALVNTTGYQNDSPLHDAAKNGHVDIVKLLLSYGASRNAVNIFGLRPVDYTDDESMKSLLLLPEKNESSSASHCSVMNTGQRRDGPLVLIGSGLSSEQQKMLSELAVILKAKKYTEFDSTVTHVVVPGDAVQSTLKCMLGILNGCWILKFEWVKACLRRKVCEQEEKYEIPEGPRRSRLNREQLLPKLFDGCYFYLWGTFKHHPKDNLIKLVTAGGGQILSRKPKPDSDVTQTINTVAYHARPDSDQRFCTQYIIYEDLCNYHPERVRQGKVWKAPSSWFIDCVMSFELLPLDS

Row | Binder | binding result (mCherry-BLM) | binding result (BRCA1-BARD1)
1 | B1 | binds | 
2 | B2 |  | binds

Reference: PMC12169213 (Science (New York, N.Y.), 2025)
